Assay results reported in the supplement of paper PMC10567573.

B1: POMT2 (parent)
chain: YHEAPMTRKHYQVTGYGINGTGDS
B2: ZER1 (parent)
chain: PILRLLPQGISPVSQHWATWALYN

Variants of: B1
Assay: protein stability index of a GFP-peptide fusion (GPS, HEK-293T) (PSI 1-6); higher = more stable
Conditions: c terminus: a fixed tail appended
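Note: lentivirally expressed fusions sorted by FACS into six bins by GFP to DsRed ratio, PSI derived from sequencing read proportions per bin multiplied by bin number.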

Compared with YHHAPMTRKHYQVTGYGINGTGDS [E3H], YHCAPMTRKHYQVTGYGINGTGDS [E3C] is higher in protein stability index: 1.77 for the first, 2 for the second.

First: YHIAPMTRKHYQVTGYGINGTGDS [E3I]
Second: YHPAPMTRKHYQVTGYGINGTGDS [E3P]
The protein stability index of the first is lower: 1.73 for the first, 2.87 for the second.

Going from YHAAPMTRKHYQVTGYGINGTGDS [E3A] to YHTAPMTRKHYQVTGYGINGTGDS [E3T], the protein stability index falls from 2.46 to 2.32.

Compared with YHVAPMTRKHYQVTGYGINGTGDS [E3V], YHQAPMTRKHYQVTGYGINGTGDS [E3Q] is lower in protein stability index: 2.22 for the first, 1.34 for the second.

Compared with YHLAPMTRKHYQVTGYGINGTGDS [E3L], YHSAPMTRKHYQVTGYGINGTGDS [E3S] is lower in protein stability index: 1.61 for the first, 1.6 for the second.

Compared with YHDAPMTRKHYQVTGYGINGTGDS [E3D], YHWAPMTRKHYQVTGYGINGTGDS [E3W] is lower in protein stability index: 2.15 for the first, 1.44 for the second.

Compared with YHGAPMTRKHYQVTGYGINGTGDS [E3G], YHMAPMTRKHYQVTGYGINGTGDS [E3M] is lower in protein stability index: 2.75 for the first, 1.67 for the second.

First: YHFAPMTRKHYQVTGYGINGTGDS [E3F]
Second: YHKAPMTRKHYQVTGYGINGTGDS [E3K]
The protein stability index of the first is lower: 1.52 for the first, 1.9 for the second.

First: YHYAPMTRKHYQVTGYGINGTGDS [E3Y]
Second: YHNAPMTRKHYQVTGYGINGTGDS [E3N]
The protein stability index of the first is lower: 1.77 for the first, 2.38 for the second.

First: YHRAPMTRKHYQVTGYGINGTGDS [E3R]
Second: YQEAPMTRKHYQVTGYGINGTGDS [H2Q]
The protein stability index of the first is lower: 1.47 for the first, 3.33 for the second.

Going from YDEAPMTRKHYQVTGYGINGTGDS [H2D] to YTEAPMTRKHYQVTGYGINGTGDS [H2T], the protein stability index falls from 3.98 to 2.58.

Going from YAEAPMTRKHYQVTGYGINGTGDS [H2A] to YWEAPMTRKHYQVTGYGINGTGDS [H2W], the protein stability index rises from 2.56 to 2.72.

Compared with YVEAPMTRKHYQVTGYGINGTGDS [H2V], YKEAPMTRKHYQVTGYGINGTGDS [H2K] is higher in protein stability index: 1.89 for the first, 3.57 for the second.

Going from YPEAPMTRKHYQVTGYGINGTGDS [H2P] to YREAPMTRKHYQVTGYGINGTGDS [H2R], the protein stability index rises from 2.99 to 3.81.

First: YCEAPMTRKHYQVTGYGINGTGDS [H2C]
Second: YGEAPMTRKHYQVTGYGINGTGDS [H2G]
The protein stability index of the first is lower: 1.97 for the first, 2.92 for the second.

Compared with YSEAPMTRKHYQVTGYGINGTGDS [H2S], YEEAPMTRKHYQVTGYGINGTGDS [H2E] is higher in protein stability index: 3.39 for the first, 3.95 for the second.

Going from YNEAPMTRKHYQVTGYGINGTGDS [H2N] to YIEAPMTRKHYQVTGYGINGTGDS [H2I], the protein stability index falls from 3.5 to 2.21.

Going from YYEAPMTRKHYQVTGYGINGTGDS [H2Y] to YMEAPMTRKHYQVTGYGINGTGDS [H2M], the protein stability index rises from 2.75 to 3.09.

Compared with YLEAPMTRKHYQVTGYGINGTGDS [H2L], YFEAPMTRKHYQVTGYGINGTGDS [H2F] is higher in protein stability index: 3.07 for the first, 3.38 for the second.

Going from LHEAPMTRKHYQVTGYGINGTGDS [Y1L] to VHEAPMTRKHYQVTGYGINGTGDS [Y1V], the protein stability index rises from 3.47 to 3.49.

Compared with SHEAPMTRKHYQVTGYGINGTGDS [Y1S], CHEAPMTRKHYQVTGYGINGTGDS [Y1C] is lower in protein stability index: 3.68 for the first, 3.05 for the second.

Going from DHEAPMTRKHYQVTGYGINGTGDS [Y1D] to IHEAPMTRKHYQVTGYGINGTGDS [Y1I], the protein stability index rises from 3.94 to 4.03.

First: THEAPMTRKHYQVTGYGINGTGDS [Y1T]
Second: FHEAPMTRKHYQVTGYGINGTGDS [Y1F]
The protein stability index of the first is higher: 3.91 for the first, 1.89 for the second.

First: QHEAPMTRKHYQVTGYGINGTGDS [Y1Q]
Second: MHEAPMTRKHYQVTGYGINGTGDS [Y1M]
The protein stability index of the first is higher: 3.9 for the first, 3.71 for the second.

Going from PHEAPMTRKHYQVTGYGINGTGDS [Y1P] to RHEAPMTRKHYQVTGYGINGTGDS [Y1R], the protein stability index falls from 4.07 to 3.51.

First: KHEAPMTRKHYQVTGYGINGTGDS [Y1K]
Second: WHEAPMTRKHYQVTGYGINGTGDS [Y1W]
The protein stability index of the first is higher: 3.97 for the first, 3.72 for the second.

Going from AHEAPMTRKHYQVTGYGINGTGDS [Y1A] to GHEAPMTRKHYQVTGYGINGTGDS [Y1G], the protein stability index falls from 3.68 to 3.53.

First: HHEAPMTRKHYQVTGYGINGTGDS [Y1H]
Second: NHEAPMTRKHYQVTGYGINGTGDS [Y1N]
The protein stability index of the first is higher: 3.58 for the first, 3.5 for the second.

Going from EHEAPMTRKHYQVTGYGINGTGDS [Y1E] to YHEEPMTRKHYQVTGYGINGTGDS [A4E], the protein stability index falls from 4.3 to 2.93.

Going from YHEGPMTRKHYQVTGYGINGTGDS [A4G] to YHEFPMTRKHYQVTGYGINGTGDS [A4F], the protein stability index rises from 2.37 to 2.68.

Compared with YHEPPMTRKHYQVTGYGINGTGDS [A4P], YHENPMTRKHYQVTGYGINGTGDS [A4N] is lower in protein stability index: 1.96 for the first, 1.69 for the second.

Going from YHEQPMTRKHYQVTGYGINGTGDS [A4Q] to YHEKPMTRKHYQVTGYGINGTGDS [A4K], the protein stability index falls from 2.68 to 2.18.

Going from YHESPMTRKHYQVTGYGINGTGDS [A4S] to YHELPMTRKHYQVTGYGINGTGDS [A4L], the protein stability index falls from 1.92 to 1.91.

First: YHEHPMTRKHYQVTGYGINGTGDS [A4H]
Second: YHEVPMTRKHYQVTGYGINGTGDS [A4V]
The protein stability index of the first is lower: 2.04 for the first, 2.96 for the second.

Going from YHETPMTRKHYQVTGYGINGTGDS [A4T] to YHERPMTRKHYQVTGYGINGTGDS [A4R], the protein stability index rises from 2.21 to 2.45.

Going from YHEWPMTRKHYQVTGYGINGTGDS [A4W] to YHEYPMTRKHYQVTGYGINGTGDS [A4Y], the protein stability index rises from 2.2 to 3.11.

First: YHEMPMTRKHYQVTGYGINGTGDS [A4M]
Second: YHEDPMTRKHYQVTGYGINGTGDS [A4D]
The protein stability index of the first is lower: 1.49 for the first, 2.95 for the second.

Compared with YHEIPMTRKHYQVTGYGINGTGDS [A4I], YHECPMTRKHYQVTGYGINGTGDS [A4C] is higher in protein stability index: 2.42 for the first, 2.5 for the second.

Compared with YHEAHMTRKHYQVTGYGINGTGDS [P5H], YHEAEMTRKHYQVTGYGINGTGDS [P5E] is higher in protein stability index: 2.74 for the first, 3.17 for the second.

Compared with YHEACMTRKHYQVTGYGINGTGDS [P5C], YHEAFMTRKHYQVTGYGINGTGDS [P5F] is higher in protein stability index: 2.31 for the first, 2.77 for the second.

Compared with YHEAAMTRKHYQVTGYGINGTGDS [P5A], YHEAGMTRKHYQVTGYGINGTGDS [P5G] is lower in protein stability index: 2.62 for the first, 2.51 for the second.

First: YHEAIMTRKHYQVTGYGINGTGDS [P5I]
Second: YHEAKMTRKHYQVTGYGINGTGDS [P5K]
The protein stability index of the first is higher: 3.27 for the first, 2.36 for the second.

YHEADMTRKHYQVTGYGINGTGDS [P5D] gave a protein stability index of 2.72.

Variants of: B2
Assay: as above
Conditions: c terminus: a fixed tail appended

First: PILRLLPQGISPVSQHWATWALYV [N24V]
Second: PILRLLPQGISPVSQHWATWALYM [N24M]
The protein stability index of the first is lower: 3.21 for the first, 3.8 for the second.

Going from PILRLLPQGISPVSQHWATWALYT [N24T] to PILRLLPQGISPVSQHWATWALYI [N24I], the protein stability index rises from 2.25 to 3.12.

Compared with PILRLLPQGISPVSQHWATWALYR [N24R], PILRLLPQGISPVSQHWATWALYP [N24P] is lower in protein stability index: 4.17 for the first, 3.08 for the second.

First: PILRLLPQGISPVSQHWATWALYW [N24W]
Second: PILRLLPQGISPVSQHWATWALYQ [N24Q]
The protein stability index of the first is higher: 2.32 for the first, 2.31 for the second.

PILRLLPQGISPVSQHWATWALYL [N24L] showed a protein stability index of 4.12.
